Source: paper PMC9250297

Assays:
[1] = molecular target: HaloTag7 C262S single mutant (UniProt P0A3G2); assay: SDS-PAGE gel shift assay
[2] = molecular target: HaloTag7 C61S single mutant (UniProt P0A3G2); assay: SDS-PAGE gel shift assay

Work on “HaloTag7 C262S single mutant (from UniProt P0A3G2 1-293) (enzyme)” yielded a stoichiometry N [1] of 2.
In the case of “HaloTag7 C61S single mutant (from UniProt P0A3G2 1-293) (enzyme)”, the stoichiometry N [2] is reported as 2.
